Reference: paper PMC8346855

Target: angiotensin II-bound mouse angiotensin II type 1 receptor F117W Δ324 (mouse | human)
Experiment: cross-linking + other: high-mass MALDI-MS; angiotensin II-bound AT1R (angII-AT1R), 5 µM, mixed with partner protein at various concentrations, 1 h at room temperature, BS(PEG)9 cross-linking, 1.0 µM β-Gal as internal standard; 20 mM Hepes pH 7.5, 40 mM NaCl, 0.01% LMNG; Ka = 1/Kd

B1: mini-Gq (domain or fragment)
chain: GIEKQLQKDKQVYRATHRLLLLGADNSGKSTIVKQMRILHGGSGGSGGTSGIFETKFQVDKVNFHMFDVGGQRDERRKWIQCFNDVTAIIFVVDSSDYNRLQEALNDFKSIWNNRWLRTISVILFLNKQDLLAEKVLAGKSKIEDYFPEFARYTTPEDATPEPGEDPRVTRAKYFIRDEFLRISTASGDGRHYCYPHFTCAVDTENARRIFNDCKDIILQMNLREYNLV
Which Ka does the source give for B1 here?
Its Ka is 480000 M⁻¹.
